{
  "source": "paper PMC13451967",
  "key": {"[1]": {"target": "His-SpNDK H121A mutant (catalytically inactive) (Streptococcus pneumoniae)", "test": "mass photometry; Refeyn OneMP; 50 mM HEPES pH 7.4, 150 mM NaCl with ATP or GTP and 5 mM MgCl2, 5 min at 22°C before the analysis"}, "[2]": {"target": "Streptococcus pneumoniae nucleoside diphosphate kinase with an N-terminal hexa-histidine tag (His-SpNDK), wild type (Streptococcus pneumoniae)", "test": "mass photometry; Refeyn OneMP; His-SpNDK diluted to 200 nM, 5 µL added to 15 µL of buffer; 50 mM HEPES pH 7.4, 100 mM NaCl; no nucleotide (ADP or GDP had no significant effect on the wild type)"}, "[3]": {"target": "Streptococcus pneumoniae nucleoside diphosphate kinase with an N-terminal hexa-histidine tag (His-SpNDK), wild type (Streptococcus pneumoniae)", "test": "SEC; Superdex 200 Increase 10/300 GL, 50 mM HEPES pH 7.4, 100 mM NaCl; concentrated sample; molecular weights from a standard curve"}, "[4]": {"target": "His-SpNDK R28A mutant (Streptococcus pneumoniae)", "test": "SEC; Superdex 200 Increase 10/300 GL, 50 mM HEPES pH 7.4, 100 mM NaCl; concentrated sample; molecular weights from a standard curve"}},
  "data": [
    {"substance": "His-SpNDK H121A mutant (catalytically inactive) (enzyme)", "values": [
      {"measurement": "stoichiometry N", "setting": "[1]", "result": "< 6"}
    ]},
    {"substance": "Streptococcus pneumoniae nucleoside diphosphate kinase with an N-terminal hexa-histidine tag (His-SpNDK), wild type (enzyme)", "values": [
      {"measurement": "stoichiometry N", "setting": "[2]", "result": 18},
      {"measurement": "stoichiometry N", "setting": "[3]", "result": 18}
    ]},
    {"substance": "His-SpNDK R28A mutant (enzyme)", "values": [
      {"measurement": "stoichiometry N", "setting": "[4]", "result": 2}
    ]}
  ]
}
